Measured values reported in patent US20130230533A1 (Regeneron, published 2013).
Numbering of substitutions follows the chain as printed. Names and notes keep the numbering of the source.

T1: Dimeric human CD48-mFc (human)
T1 chain: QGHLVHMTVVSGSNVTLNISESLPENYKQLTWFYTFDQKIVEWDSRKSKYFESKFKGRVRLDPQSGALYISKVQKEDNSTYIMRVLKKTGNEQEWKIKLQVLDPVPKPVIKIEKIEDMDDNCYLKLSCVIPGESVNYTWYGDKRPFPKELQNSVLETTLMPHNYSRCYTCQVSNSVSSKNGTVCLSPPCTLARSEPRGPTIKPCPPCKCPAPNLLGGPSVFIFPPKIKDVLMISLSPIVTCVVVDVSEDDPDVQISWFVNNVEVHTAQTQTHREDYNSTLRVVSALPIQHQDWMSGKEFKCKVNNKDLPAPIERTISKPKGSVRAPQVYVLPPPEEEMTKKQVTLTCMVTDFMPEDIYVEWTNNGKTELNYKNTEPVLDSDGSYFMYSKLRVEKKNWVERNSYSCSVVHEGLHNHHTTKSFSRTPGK

T2: Dimeric human CD48-mFc (human)
T2 construct: the whole entry is the construct; also called hCD48-mFc
T2 chain: T1 chain

T3: Monomeric human CD48-mmH (human)
T3 chain: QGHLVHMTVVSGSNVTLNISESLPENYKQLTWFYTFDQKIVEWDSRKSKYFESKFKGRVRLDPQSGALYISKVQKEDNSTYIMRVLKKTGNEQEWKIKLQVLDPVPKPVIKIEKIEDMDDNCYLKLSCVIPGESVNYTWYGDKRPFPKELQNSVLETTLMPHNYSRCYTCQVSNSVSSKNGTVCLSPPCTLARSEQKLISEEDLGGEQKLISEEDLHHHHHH

T4: Monomeric human CD48-mmH (human)
T4 construct: also called soluble CD48 expressed with a myc-myc-hexa-histidine C-terminal tag [mmH]
T4 chain: T3 chain

B1: H4H1763N (antibody, human IgG4, V domains shown)
VH: QIQLVQSGAEMKRPGTSVKVSCKASGYTFTSYGINWVRQAPGQGLEWMGWISAYNGDTNYAQKLQGRVTMTTDTSTTTAYMEVRSLRSDDTAVYYCARFLTGTKDYYYGMDVWGQGTTVTVSS
VL: DIQMTQSPSSLSASVGDRVTITCQASQDISNFLNWYQQKPGKAPDLLINDASILETGVPSRFSGSGSGTDFTLTINNLQPEDIATYYCQQYDNLPLTFGGGTKVEIK
notes: Human IgG4 Fc (prefix H4H)
B2: H2M1712N (antibody, mouse IgG2, V domains shown)
VH: B1 VH with T30S, Y106L
VL: B1 VL with N77S
notes: Human variable domains, mouse IgG2 Fc (prefix H2M)
B3: H4H1713N (antibody, human IgG4, V domains shown)
VH: QVQLVQSGAEVKKPGASVKVSCKASGHTFTNYYIHWVRQAPGQGLEWMGITNPNDGNTRYAQKFQGRISMTWDTSTSTVFMELSSLKSEDTAVYYCAGLRYWFFDLWGRGTPVTVSS
VL: DIQMTQSPSSVSASVGDRVTITCRASQDISSWLAWYQQKPGKAPNLLIFAASSLQSGVPSRFSGSGSGTDFTLTISSLQPEDFGTYYCQQTDNFPRTFGQGTKVEIN
notes: Human IgG4 Fc (prefix H4H)
B4: H2M1713N (antibody, mouse IgG2, V domains shown)
VH: B3 VH
VL: B3 VL
notes: as for B2
B5: H2M1764N (antibody, mouse IgG2, V domains shown)
VH: QVQLVESGGGVVQPGRSLRLSCAASGFTFSDYGMHWVRQAPGKGLEWVAVIWNDGSNKNYADSVKGRFSISSDSSKNTLYLHMNSLRAEDTAVYYCARSLYSTSPWYFDLWGRGTLVTVSS
VL: not shown
notes: as for B2
B6: H4H1764N (antibody, human IgG4, V domains shown)
VH: B5 VH
VL: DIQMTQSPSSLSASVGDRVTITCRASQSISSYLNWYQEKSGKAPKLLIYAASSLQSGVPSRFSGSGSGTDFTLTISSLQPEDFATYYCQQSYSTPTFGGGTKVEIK
notes: Human IgG4 Fc (prefix H4H)
B7: H2M1763N (antibody, mouse IgG2, V domains shown)
VH: B1 VH
VL: B1 VL
notes: Human variable domains, mouse IgG2 Fc (H2M)
B8: H2M1712N (antibody, mouse IgG2, V domains shown)
VH: B1 VH with T30S, Y106L
VL: B1 VL with N77S
notes: as for B7
B9: H2M1710N (antibody, mouse IgG2, V domains shown)
VH: QVQLVQSGADMKKPGASVRVSCKASGYTFTDYFIHWVRQAPGQGPEWMGWINPDSGATNYAQQFQGRVTMTRDTSISATYMEMSRLRSDDTAVFYCARDKDGSGWYLDDWGQGTLVTVSS
VL: EIVLTQSPATLSLSPGERATLSCRASQSVNIYLAWYQQKPGQAPRLLIYDASNRASGIPARFSGSGSGTDFTLTISSLEPEDFAVYYCQQRSNWPPSITFGQGTRLEIK
notes: as for B7
B10: H2M1811N (antibody, mouse IgG2, V domains shown)
VH: QVQLVQSGAEAREPGASVRVSCKASGYTFTDYFIHWVRQAPGQGLEWMGWINPNSGATNFAQKFQGRVTMTRDTSLITAYMDLSRLKSDDAAVFYCARDVDGSGWYLDFWGQGTLVTVSS
VL: B9 VL with N30S, S56T, S77R, N93D
notes: as for B7
B11: H2M1713N (antibody, mouse IgG2, V domains shown)
VH: B3 VH
VL: B3 VL
notes: as for B7
B12: H2M1707N (antibody, V domains shown)
VH: EGQLLESGGGLAQPGGSLRLSCAASGITFGRYAMSWVRQAPGKGLEWVSLISGSGGSTYHADSVKGRFTISRDNSKNTLYLQMNSLRAEDTAVYYCAIYNNYNWFDPWGQGTLVTVSS
VL: EIVLTQSPGTLSLSPGERATLSCRASQSVSSNYLAWYQQKPGQAPRLLIYDASSRATDIPDRFSGSGSGTDFTLTISRLEPEDFAVYYCQQYGSSPRTFGQGTKVEIK
notes: as for B7
B13: H2M1709N (antibody, mouse IgG2, V domains shown)
VH: QVQLVQSGAEVKKPGASVKVSCKVSGYTLTELSIHWVRQAPGKGLEWMGGFDPEDGETIYAQKFQGRVNMTEDTSTDTAYMELSSLRSDDTTVYFCASLLPYFDYWGQGTLVTVSS
VL: B12 VL with N32S, D51G, D58G, T75S, Y88F, P96M, R97Y, V105L
notes: as for B7
B14: H2M1764N (antibody, mouse IgG2, V domains shown)
VH: B5 VH
VL: not shown
notes: as for B7
B15: H3M1766N (antibody, V domains shown)
VH: EVQLVESGGGLAQPGGSLRLSCAASGFTFSSYEMNWVRQAPGKGLEWVSYITTSGSTIYYADSVKGRFTMSRDNAKKSLYLEMNSLRAEDTAVYYCAREECTNGVCYKDYQYYGMDVWGQGTTVTVSS
VL: DIQMTQSPSSVSASVGDRVTITCRASQNINTWLAWYQQKPGKVPKLLIYAASSLQSGVPSRFSGSGSGTDFTLTISSLQPEDFATYYCQQANSFPLTFGGGTKVEIK
notes: Human variable domains, mouse Fc (H3M); also called H2M1766N

Molecular target: T1, Dimeric human CD48-mFc
Assay: SPR (Biacore T100), 25 C, antibody captured by anti-Fc, dimeric CD48-mFc in solution
Experimental: (§1) Measurements were conducted on a T100-2 BIACORE™ instrument (Biacore Life Sciences division of GE Healthcare, Piscataway, N.J.). Antibodies (either with mouse Fc [designated “H2M” or “H3M”] or human IgG4 Fc [designated “H4H”]) were captured through an anti-Fc chip surface, and CD48 was flowed over the surface either in a monomeric (soluble CD48 expressed with a myc-myc-hexa-histidine C-terminal tag [mmH]) or dimeric (soluble CD48 expressed with a C-terminal Fc fusion [mFc]) format.
(§2) The soluble CD48 was applied to the flow cell in separate injections at different concentrations, and kinetic association (kₐ) and dissociation (kd) rate constants were determined by fits to the kinetic binding data using Biacore software. Binding dissociation equilibrium constants and dissociation half-times were calculated from the kinetic rate constants as: KD=kd/kₐ; t_{1/2}=(ln 2/kd) (units: ka=M⁻¹*s⁻¹; kd=s⁻¹; KD=M; T½=min) (Tables 3-6).

| Kd [nM] | T½ [min] | koff [s⁻¹] | kon [M⁻¹ s⁻¹] | Binder |
| --- | --- | --- | --- | --- |
| 0.0268 | 211 | 5.48e-05 | 2.05e+06 | B1 |
| 0.288 | 22 | 0.00053 | 1.84e+06 | B2 |
| 0.0212 | 609 | 1.9e-05 | 894000 | B3 |
| 0.0134 | 1040 | 1.11e-05 | 826000 | B4 |
| 1.03 | 43 | 0.000266 | 259000 | B5 |
| 0.226 | 191 | 6.05e-05 | 268000 | B6 |

Molecular target: T2, Dimeric human CD48-mFc
Assay: SPR (Biacore), antibody captured by anti-Fc, CD48 in solution, 37 C
Experimental: as §1, §2

| Kd [nM] | T½ [min] | koff [s⁻¹] | kon [M⁻¹ s⁻¹] | Binder |
| --- | --- | --- | --- | --- |
| 0.293 | 13 | 0.000883 | 3.02e+06 | B7 |
| 0.252 | 17 | 0.000685 | 2.72e+06 | B8 |
| 0.885 | 27 | 0.000426 | 481000 | B9 |
| 0.966 | 45 | 0.000256 | 265000 | B10 |
| 0.0663 | 140 | 8.27e-05 | 1.25e+06 | B11 |
| 0.247 | 51 | 0.000227 | 920000 | B12 |
| 0.248 | 31 | 0.000377 | 1.52e+06 | B13 |
| 0.586 | 28 | 0.000412 | 702000 | B14 |
| 0.342 | 36 | 0.000324 | 949000 | B15 |

Molecular target: T3, Monomeric human CD48-mmH
Assay: as above
Experimental: as §1, §2

| Kd [nM] | T½ [min] | koff [s⁻¹] | kon [M⁻¹ s⁻¹] | Binder |
| --- | --- | --- | --- | --- |
| 13.5 | 1 | 0.0201 | 1.49e+06 | B7 |
| 16.6 | 1 | 0.014 | 846000 | B8 |
| 153 | 2 | 0.0052 | 34000 | B9 |
| 22.7 | 4 | 0.00295 | 130000 | B10 |
| 2.74 | 18 | 0.000644 | 235000 | B11 |
| 14.7 | 4 | 0.00314 | 214000 | B12 |
| 35.1 | 0 | 0.04 | 1.14e+06 | B13 |
| 94.7 | 1 | 0.016 | 169000 | B14 |
| 3.84 | 19 | 0.00062 | 161000 | B15 |

Molecular target: T4, Monomeric human CD48-mmH
Assay: SPR (Biacore T100), 25 C, antibody captured by anti-Fc, monomeric CD48-mmH in solution
Experimental: as §1, §2

| Kd [nM] | T½ [min] | koff [s⁻¹] | kon [M⁻¹ s⁻¹] | Binder |
| --- | --- | --- | --- | --- |
| 8.2 | 2 | 0.00631 | 769000 | B1 |
| 11.8 | 2 | 0.00619 | 524000 | B2 |
| 0.893 | 67 | 0.000174 | 194000 | B3 |
| 1.35 | 53 | 0.000217 | 161000 | B4 |
| 23.5 | 4 | 0.00285 | 121000 | B5 |
| 23.6 | 5 | 0.00248 | 105000 | B6 |
